Target: FluPolB, influenza B/Memphis/2003 polymerase heterotrimer (wild type) (influenza B virus B/Memphis/2003, UniProt Q5V8Z9;Q5V8Y6;Q5V8X3)
Test: SEC

B1: hANP32A 144-249 (LCAR alone) (domain or fragment)
chain: YLDGYDRDDKEAPDSDAEGYVEGLDDEEEDEDEEEYDEDAQVVEDEEDEDEEEEGEEEDVSGEEEEDEEGYNDGEVDDEEDEEELGEEERGQKRKREPEDEGEDDD
B1: binds.
